In paper PMC3683295:

How the values were obtained:
[1] = biological target: BCL-xLΔC (human) (UniProt Q07817); experiment: native gel or EMSA
[2] = biological target: BCL-xLΔLΔC (human) (UniProt Q07817); experiment: native gel or EMSA
[3] = biological target: BCL-xLΔLΔC (human) (UniProt Q07817); experiment: AUC
[4] = biological target: BCL-xLΔLΔC (human) (UniProt Q07817); experiment: NMR solution structure

stoichiometry N [1]	stoichiometry N [2]	stoichiometry N [3]	stoichiometry N [4]	Substance
2				BCL-xLΔC (from UniProt Q07817-1 1-211) (domain or fragment)
	2			BCL-xLΔLΔC (from UniProt Q07817-1 1-211) (domain or fragment)
1		1	1	PUMA^BH3 (peptide)
